Reference: ChEMBL document CHEMBL2074012, “Multidrug resistance protein (MRP) 1 and MRP3 attenuate cytotoxic and transactivating effects of the cyclopentenone prostaglandin, 15-deoxy-Delta(12,14)prostaglandin J2 in MCF7 breast cancer cells” (Biochemistry, 2003)

Key:
Type in all cases: functional, cell-based
[1] = substrate: CN(Cc1cnc2nc(N)nc(N)c2n1)c1ccc(C(=O)N[C@@H](CCC(=O)O)C(=O)O)cc1; test: (§1) TP_TRANSPORTER: uptake in MRP3-expressing MCF7 cells
[2] = substrate: N[C@@H](CCC(=O)N[C@H](CSCCCCC/C=C/C=C1/C(=O)C=C[C@@H]1C/C=C\CCCC(=O)O)C(=O)NCC(=O)O)C(=O)O; test: as §1
[3] = substrate: CN(Cc1cnc2nc(N)nc(N)c2n1)c1ccc(C(=O)N[C@@H](CCC(=O)O)C(=O)O)cc1; test: (§2) TP_TRANSPORTER: uptake in MRP1-expressing MCF7 cells
[4] = substrate: N[C@@H](CCC(=O)N[C@H](CSCCCCC/C=C/C=C1/C(=O)C=C[C@@H]1C/C=C\CCCC(=O)O)C(=O)NCC(=O)O)C(=O)O; test: as §2

| Protein | Km [1] [µM] | Km [2] [µM] | Km [3] [µM] | Km [4] [µM] |
| --- | --- | --- | --- | --- |
| Multidrug resistance associated protein (Homo sapiens), Q96QA9 (protein) MDALCGSGELGSKFWDSNLSVHTENPDLTPCFQNSLLAWVPCIYLWVALPCYLLYLRHHCRGYIILSHLSKLKMVLGVLLWCVSWADLFYSFHGLVHGRAPAPVFFVTPLVVGVTMLLATLLIQYERLQGVQSSGVLIIFWFLCVVCAIVPFRSKILLAKAEGEISDPFRFTTFYIHFALVLSALILACFREKPPFFSAKNVDPNPYPETSAGFLSRLFFWWFTKMAIYGYRHPLEEKDLWSLKEEDRSQMVVQQLLEAWRKQEKQTARHKASAAPGKNASGEDEVLLGARPRPRKPSFLKALLATFGSSFLISACFKLIQDLLSFINPQLLSILIRFISNPMAPSWWGFLVAGLMFLCSMMQSLILQHYYHYIFVTGVKFRTGIMGVIYRKALVITNSVKRASTVGEIVNLMSVDAQRFMDLAPFLNLLWSAPLQIILAIYFLWQNLGPSVLAGVAFMVLLIPLNGAVAVKMRAFQVKQMKLKDSRIKLMSEILNGIKVLKLYAWEPSFLKQVEGIRQGELQLLRTAAYLHTTTTFTWMCSPFLVTLITLWVYVYVDPNNVLDAEKAFVSVSLFNILRLPLNMLPQLISNLTQASVSLKRIQQFLSQEELDPQSVERKTISPGYAITIHSGTFTWAQDLPPTLHSLDIQVPKGALVAVVGPVGCGKSSLVSALLGEMEKLEGKVHMKGSVAYVPQQAWIQNCTLQENVLFGKALNPKRYQQTLEACALLADLEMLPGGDQTEIGEKGINLSGGQRQRVSLARAVYSDADIFLLDDPLSAVDSHVAKHIFDHVIGPEGVLAGKTRVLVTHGISFLPQTDFIIVLADGQVSEMGPYPALLQRNGSFANFLCNYAPDEDQGHLEDSWTALEGAEDKEALLIEDTLSNHTDLTDNDPVTYVVQKQFMRQLSALSSDGEGQGRPVPRRHLGPSEKVQVTEAKADGALTQEEKAAIGTVELSVFWDYAKAVGLCTTLAICLLYVGQSAAAIGANVWLSAWTNDAMADSRQNNTSLRLGVYAALGILQGFLVMLAAMAMAAGGIQAARVLHQALLHNKIRSPQSFFDTTPSGRILNCFSKDIYVVDEVLAPVILMLLNSFFNAISTLVVIMASTPLFTVVILPLAVLYTLVQRFYAATSRQLKRLESVSRSPIYSHFSETVTGASVIRAYNRSRDFEIISDTKVDANQRSCYPYIISNRWLSIGVEFVGNCVVLFAALFAVIGRSSLNPGLVGLSVSYSLQVTFALNWMIRMMSDLESNIVAVERVKEYSKTETEAPWVVEGSRPPEGWPPRGEVEFRNYSVRYRPGLDLVLRDLSLHVHGGEKVGIVGRTGAGKSSMTLCLFRILEAAKGEIRIDGLNVADIGDPILFSGTLRMNLDPFGSYSEEDIWWALELSHLHTFVSSQPAGLDFQCSEGGENLSVGQRQLVCLARALLRKSRILVLDEATAAIDLETDNLIQATIRTQFDTCTVLTIAHRLNTIMDYTRVLVLDKGVVAEFDSPANLIAARGIFYGMARDAGLA | 910 | 2.9 |  |  |
| Multidrug resistance-associated protein 1 (Homo sapiens) (protein) MALRGFCSADGSDPLWDWNVTWNTSNPDFTKCFQNTVLVWVPCFYLWACFPFYFLYLSRHDRGYIQMTPLNKTKTALGFLLWIVCWADLFYSFWERSRGIFLAPVFLVSPTLLGITMLLATFLIQLERRKGVQSSGIMLTFWLVALVCALAILRSKIMTALKEDAQVDLFRDITFYVYFSLLLIQLVLSCFSDRSPLFSETIHDPNPCPESSASFLSRITFWWITGLIVRGYRQPLEGSDLWSLNKEDTSEQVVPVLVKNWKKECAKTRKQPVKVVYSSKDPAQPKESSKVDANEEVEALIVKSPQKEWNPSLFKVLYKTFGPYFLMSFFFKAIHDLMMFSGPQILKLLIKFVNDTKAPDWQGYFYTVLLFVTACLQTLVLHQYFHICFVSGMRIKTAVIGAVYRKALVITNSARKSSTVGEIVNLMSVDAQRFMDLATYINMIWSAPLQVILALYLLWLNLGPSVLAGVAVMVLMVPVNAVMAMKTKTYQVAHMKSKDNRIKLMNEILNGIKVLKLYAWELAFKDKVLAIRQEELKVLKKSAYLSAVGTFTWVCTPFLVALCTFAVYVTIDENNILDAQTAFVSLALFNILRFPLNILPMVISSIVQASVSLKRLRIFLSHEELEPDSIERRPVKDGGGTNSITVRNATFTWARSDPPTLNGITFSIPEGALVAVVGQVGCGKSSLLSALLAEMDKVEGHVAIKGSVAYVPQQAWIQNDSLRENILFGCQLEEPYYRSVIQACALLPDLEILPSGDRTEIGEKGVNLSGGQKQRVSLARAVYSNADIYLFDDPLSAVDAHVGKHIFENVIGPKGMLKNKTRILVTHSMSYLPQVDVIIVMSGGKISEMGSYQELLARDGAFAEFLRTYASTEQEQDAEENGVTGVSGPGKEAKQMENGMLVTDSAGKQLQRQLSSSSSYSGDISRHHNSTAELQKAEAKKEETWKLMEADKAQTGQVKLSVYWDYMKAIGLFISFLSIFLFMCNHVSALASNYWLSLWTDDPIVNGTQEHTKVRLSVYGALGISQGIAVFGYSMAVSIGGILASRCLHVDLLHSILRSPMSFFERTPSGNLVNRFSKELDTVDSMIPEVIKMFMGSLFNVIGACIVILLATPIAAIIIPPLGLIYFFVQRFYVASSRQLKRLESVSRSPVYSHFNETLLGVSVIRAFEEQERFIHQSDLKVDENQKAYYPSIVANRWLAVRLECVGNCIVLFAALFAVISRHSLSAGLVGLSVSYSLQVTTYLNWLVRMSSEMETNIVAVERLKEYSETEKEAPWQIQETAPPSSWPQVGRVEFRNYCLRYREDLDFVLRHINVTINGGEKVGIVGRTGAGKSSLTLGLFRINESAEGEIIIDGINIAKIGLHDLRFKITIIPQDPVLFSGSLRMNLDPFSQYSDEEVWTSLELAHLKDFVSALPDKLDHECAEGGENLSVGQRQLVCLARALLRKTKILVLDEATAAVDLETDDLIQSTIRTQFEDCTVLTIAHRLNTIMDYTRVIVLDKGEIQEYGAPSDLLQQRGLFYSMAKDAGLV |  |  | 930 | 1.4 |
